In paper PMC12781872:
pKd: −log10 of the molar value.

Key:
Assay in all cases: FRET
[1] = target: RNAP core beta' D359AzF Dylight488;sigmaA rpoC:D359 (Mycobacterium tuberculosis;Mycobacterium tuberculosis) (UniProt P9WGZ1+P9WGZ1+P9WGY9+P9WGY7+P9WGY5+P9WGI1)
[2] = target: RNAP core beta' D359AzF Dylight488;sigmaE rpoC:D359 (Mycobacterium tuberculosis;Mycobacterium tuberculosis) (UniProt P9WGZ1+P9WGZ1+P9WGY9+P9WGY7+P9WGY5+P9WGG7)
[3] = target: RNAP core beta' D359AzF Dylight488;sigmaF rpoC:D359 (Mycobacterium tuberculosis;Mycobacterium tuberculosis) (UniProt P9WGZ1+P9WGZ1+P9WGY9+P9WGY7+P9WGY5+P9WGI3)

With “GTGGCCCTTGTGGGAGCGTCGGCCATAGCGGCCTCCCGGTCGGCTTGCGCTG / CAGCGCAAGCCGACCGGGAGGCCGCTATGGCCGACGCTCCCACAAGGGCCAC / UUUUUUUCCGCUAUG” the pKd [1] was 6.79, the pKd [2] was 6.47 and the pKd [3] was 7.68.
